Laboratory results taken from US20240053360A1 (EQUILLIUM, published 2024).

Target: T1, cell surface CD6 on human T cells (CD4 and CD8 T cells of PBMCs / whole blood) (human, UniProt P30203 18-668)
T1 construct: whole, on cells
T1 sequence (looked up): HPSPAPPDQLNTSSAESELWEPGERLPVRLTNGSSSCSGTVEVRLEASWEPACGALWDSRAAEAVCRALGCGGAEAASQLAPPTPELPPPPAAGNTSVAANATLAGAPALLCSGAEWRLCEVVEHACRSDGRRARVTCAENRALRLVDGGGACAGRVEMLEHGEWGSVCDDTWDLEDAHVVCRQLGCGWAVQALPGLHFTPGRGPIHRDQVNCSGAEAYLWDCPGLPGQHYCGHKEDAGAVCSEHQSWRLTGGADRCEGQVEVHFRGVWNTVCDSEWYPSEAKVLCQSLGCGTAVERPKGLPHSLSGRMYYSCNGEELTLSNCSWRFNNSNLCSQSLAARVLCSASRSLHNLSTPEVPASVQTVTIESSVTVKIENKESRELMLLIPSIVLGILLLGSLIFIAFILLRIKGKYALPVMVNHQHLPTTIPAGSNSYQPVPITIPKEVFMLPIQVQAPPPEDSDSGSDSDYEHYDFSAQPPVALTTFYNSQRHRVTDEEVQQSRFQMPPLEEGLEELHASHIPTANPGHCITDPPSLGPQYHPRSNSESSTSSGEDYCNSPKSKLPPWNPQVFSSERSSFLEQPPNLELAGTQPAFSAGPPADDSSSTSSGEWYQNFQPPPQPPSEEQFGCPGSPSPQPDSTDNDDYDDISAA
Assay: flow cytometry, receptor occupancy on CD4 and CD8 T cells

B1: itolizumab (antibody, human IgG1, kappa, V domains shown)
VH: EVQLVESGGGLVKPGGSLKLSCAASGFKFSRYAMSWVRQAPGKRLEWVATISSGGSYIYYPDSVKGRFTISRDNVKNTLYLQMSSLRSEDTAMYYCARRDYDLDYFDSWGQGTLVTVSS
VL: DIQMTQSPSSLSASVGDRVTITCKASRDIRSYLTWYQQKPGKAPKTLIYYATSLADGVPSRFSGSGSGQDYSLTISSLESDDTATYYCLQHGESPFTLGSGTKLEIKR
notes: Humanized anti-CD6 monoclonal antibody; also called EQ001; ALZUMAB
B1: binds.
